Measurements: article PMC12732313, “Phylogenetic and biochemical analysis of the evolution and interdomain modularity of bifunctional L-fucokinase/GDP-fucose pyrophosphorylases” (The Journal of Biological Chemistry, 2025)

How the values were obtained:
[1] = system: C[C@@H]1O[C@H](OP(=O)(O)O)[C@@H](O)[C@H](O)[C@@H]1O; assay: purified protein; settings: pyrophosphorylase activity, 400 μM GTP, 10 mM MgCl2, pH 7.5, 37 °C
[2] = system: Nc1nc2c(ncn2[C@@H]2O[C@H](COP(=O)(O)OP(=O)(O)OP(=O)(O)O)[C@@H](O)[C@H]2O)c(=O)[nH]1; assay: purified protein; settings: pyrophosphorylase activity, 250 μM Fuc-1-P, 10 mM MgCl2, pH 7.5, 37 °C
TxFKP = molecular target: T1, TxFKP (Thermophagus xiamenensis, UniProt A0A1I2DJ10); assay: thermal shift, SYPRO orange; assay type: binding; settings: 2 mM L-fucose, pH 7.0; Tm2 assigned to FUK domain
T1 construct: gene SAMN05444380_11920; codon-optimized gene in pET-28a, E. coli BL21(DE3) with GroEL/GroES/Trigger Factor; Ni-IMAC; GroEL (~60 kDa) contaminant remains
T1 sequence (A0A1I2DJ10 1-954): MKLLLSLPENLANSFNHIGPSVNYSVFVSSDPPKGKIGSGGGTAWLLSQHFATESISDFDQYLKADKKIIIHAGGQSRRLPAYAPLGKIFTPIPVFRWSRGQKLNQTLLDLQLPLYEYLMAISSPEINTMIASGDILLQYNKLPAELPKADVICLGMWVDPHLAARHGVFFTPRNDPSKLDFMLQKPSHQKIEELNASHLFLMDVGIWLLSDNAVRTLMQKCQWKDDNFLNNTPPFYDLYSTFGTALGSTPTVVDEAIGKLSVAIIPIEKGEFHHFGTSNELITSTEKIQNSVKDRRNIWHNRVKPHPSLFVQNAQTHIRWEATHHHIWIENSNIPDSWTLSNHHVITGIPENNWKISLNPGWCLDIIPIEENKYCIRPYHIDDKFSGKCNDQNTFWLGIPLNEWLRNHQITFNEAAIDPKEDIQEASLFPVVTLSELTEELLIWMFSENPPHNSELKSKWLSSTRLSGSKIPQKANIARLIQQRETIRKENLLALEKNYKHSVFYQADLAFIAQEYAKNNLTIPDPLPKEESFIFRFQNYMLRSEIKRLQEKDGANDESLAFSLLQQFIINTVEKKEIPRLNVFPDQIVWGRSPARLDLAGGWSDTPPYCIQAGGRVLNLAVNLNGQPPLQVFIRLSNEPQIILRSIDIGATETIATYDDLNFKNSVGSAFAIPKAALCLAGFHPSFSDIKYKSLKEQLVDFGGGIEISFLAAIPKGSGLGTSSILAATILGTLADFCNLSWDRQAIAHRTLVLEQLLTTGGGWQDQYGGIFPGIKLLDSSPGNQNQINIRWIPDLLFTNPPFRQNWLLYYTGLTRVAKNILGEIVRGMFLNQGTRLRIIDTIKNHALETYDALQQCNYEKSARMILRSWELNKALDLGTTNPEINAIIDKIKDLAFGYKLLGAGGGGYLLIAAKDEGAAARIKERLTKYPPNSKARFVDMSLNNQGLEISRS
From the text: thermal shift, SYPRO orange on TxFKP

BfFKP = molecular target: T2, BfFKP (Bacteroides fragilis, UniProt Q58T34); assay: thermal shift, SYPRO orange; assay type: binding; settings: 2 mM L-fucose, pH 7.0; lower melting transition; domain not assigned
T2 construct: gene fkp; codon-optimized gene in pET vector, E. coli BL21(DE3) with GroEL/GroES/Trigger Factor; Ni-IMAC; no solubility tag
T2 sequence (Q58T34 whole entry): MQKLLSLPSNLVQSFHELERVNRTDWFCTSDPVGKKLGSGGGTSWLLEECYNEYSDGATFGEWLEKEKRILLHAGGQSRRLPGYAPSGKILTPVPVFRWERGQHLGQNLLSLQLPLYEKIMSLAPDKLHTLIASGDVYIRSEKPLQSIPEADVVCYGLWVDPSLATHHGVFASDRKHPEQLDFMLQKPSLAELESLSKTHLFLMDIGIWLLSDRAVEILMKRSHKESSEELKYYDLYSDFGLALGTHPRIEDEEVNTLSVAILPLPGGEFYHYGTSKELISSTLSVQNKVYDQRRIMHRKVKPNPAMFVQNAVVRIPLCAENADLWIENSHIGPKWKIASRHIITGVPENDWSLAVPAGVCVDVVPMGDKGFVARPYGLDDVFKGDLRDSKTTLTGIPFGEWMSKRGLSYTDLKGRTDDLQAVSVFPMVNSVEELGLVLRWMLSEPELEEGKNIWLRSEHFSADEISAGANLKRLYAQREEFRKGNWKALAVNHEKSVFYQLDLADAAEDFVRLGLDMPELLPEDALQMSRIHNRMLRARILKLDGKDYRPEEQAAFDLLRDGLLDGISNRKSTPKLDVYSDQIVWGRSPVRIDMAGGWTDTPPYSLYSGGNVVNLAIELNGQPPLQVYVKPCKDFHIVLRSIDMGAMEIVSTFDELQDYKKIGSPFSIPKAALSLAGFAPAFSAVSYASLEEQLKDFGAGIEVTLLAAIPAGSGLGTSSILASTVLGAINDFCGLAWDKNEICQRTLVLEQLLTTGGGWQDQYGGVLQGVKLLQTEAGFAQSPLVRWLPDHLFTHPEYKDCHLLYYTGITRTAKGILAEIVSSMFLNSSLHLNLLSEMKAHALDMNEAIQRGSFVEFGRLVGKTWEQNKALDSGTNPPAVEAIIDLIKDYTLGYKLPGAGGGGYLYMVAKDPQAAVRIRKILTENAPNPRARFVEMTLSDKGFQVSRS
From the text: thermal shift, SYPRO orange on BfFKP

purified protein [3] = substrate: Nc1ncnc2c1ncn2[C@@H]1O[C@H](COP(=O)(O)OP(=O)(O)OP(=O)(O)O)[C@@H](O)[C@H]1O; assay: purified protein; assay type: biochemical, Thermophagus xiamenensis; settings: kinase activity, 1 mM L-fucose, 10 mM MnCl2, pH 7.5, 37 °C
purified protein [4] = substrate: Nc1nc2c(ncn2[C@@H]2O[C@H](COP(=O)(O)OP(=O)(O)OP(=O)(O)O)[C@@H](O)[C@H]2O)c(=O)[nH]1; assay: purified protein; assay type: biochemical, Thermophagus xiamenensis; settings: pyrophosphorylase activity, 250 μM Fuc-1-P, 10 mM MgCl2, pH 7.5, 37 °C
purified protein [5] = substrate: C[C@@H]1O[C@H](OP(=O)(O)O)[C@@H](O)[C@H](O)[C@@H]1O; assay: purified protein; assay type: biochemical, Thermophagus xiamenensis; settings: pyrophosphorylase activity, 100 μM GTP, 10 mM MgCl2, pH 7.5, 37 °C

How did the Km [1] turn out when BfFKP (Bacteroides fragilis) was run?
Its Km is 120 ± 60 µM.

And the kcat [1]?
The kcat was 9 ± 3 s⁻¹.

And the kcat/Km [1]?
Its kcat/Km is 70000 ± 50000 M⁻¹ s⁻¹.

And the Km [2]?
Its Km is 140 ± 30 µM.

What about the kcat [2] of the same molecule?
Its kcat is 13 ± 3 s⁻¹.

What about the kcat/Km [2] of the same molecule?
The kcat/Km was 90000 ± 30000 M⁻¹ s⁻¹.

How did the “Δ Tm2 (°C)” value (TxFKP) turn out when C[C@@H]1OC(O)[C@@H](O)[C@H](O)[C@@H]1O (stereo partly drawn) [L-fucose] was run?
The value was 1.8 ± 0.2 °C.

What about the “ΔTm1 (°C)” value (BfFKP) of the same molecule?
Its value is 2.0 ± 0.0 °C.

B1: TxFKP (Thermophagus xiamenensis) (protein)
chain: MKLLLSLPENLANSFNHIGPSVNYSVFVSSDPPKGKIGSGGGTAWLLSQHFATESISDFDQYLKADKKIIIHAGGQSRRLPAYAPLGKIFTPIPVFRWSRGQKLNQTLLDLQLPLYEYLMAISSPEINTMIASGDILLQYNKLPAELPKADVICLGMWVDPHLAARHGVFFTPRNDPSKLDFMLQKPSHQKIEELNASHLFLMDVGIWLLSDNAVRTLMQKCQWKDDNFLNNTPPFYDLYSTFGTALGSTPTVVDEAIGKLSVAIIPIEKGEFHHFGTSNELITSTEKIQNSVKDRRNIWHNRVKPHPSLFVQNAQTHIRWEATHHHIWIENSNIPDSWTLSNHHVITGIPENNWKISLNPGWCLDIIPIEENKYCIRPYHIDDKFSGKCNDQNTFWLGIPLNEWLRNHQITFNEAAIDPKEDIQEASLFPVVTLSELTEELLIWMFSENPPHNSELKSKWLSSTRLSGSKIPQKANIARLIQQRETIRKENLLALEKNYKHSVFYQADLAFIAQEYAKNNLTIPDPLPKEESFIFRFQNYMLRSEIKRLQEKDGANDESLAFSLLQQFIINTVEKKEIPRLNVFPDQIVWGRSPARLDLAGGWSDTPPYCIQAGGRVLNLAVNLNGQPPLQVFIRLSNEPQIILRSIDIGATETIATYDDLNFKNSVGSAFAIPKAALCLAGFHPSFSDIKYKSLKEQLVDFGGGIEISFLAAIPKGSGLGTSSILAATILGTLADFCNLSWDRQAIAHRTLVLEQLLTTGGGWQDQYGGIFPGIKLLDSSPGNQNQINIRWIPDLLFTNPPFRQNWLLYYTGLTRVAKNILGEIVRGMFLNQGTRLRIIDTIKNHALETYDALQQCNYEKSARMILRSWELNKALDLGTTNPEINAIIDKIKDLAFGYKLLGAGGGGYLLIAAKDEGAAARIKERLTKYPPNSKARFVDMSLNNQGLEISRS
notes: codon-optimized gene in pET-28a, E. coli BL21(DE3) with GroEL/GroES/Trigger Factor; Ni-IMAC; GroEL (~60 kDa) contaminant remains
With B1 as the molecule, how does the Km (purified protein [3]) read?
Its Km is 1000 ± 300 µM.

And the kcat (purified protein [3])?
Its kcat is 0.74 ± 0.07 s⁻¹.

And the kcat/Km (purified protein [3])?
Its kcat/Km is 700 ± 300 M⁻¹ s⁻¹.

What about the Km (purified protein [4]) of the same molecule?
The Km was 27 ± 11 µM.

And the kcat (purified protein [4])?
The kcat was 8 ± 1.1 s⁻¹.

And the kcat/Km (purified protein [4])?
Its kcat/Km is 300000 ± 130000 M⁻¹ s⁻¹.

And the Km (purified protein [5])?
The Km was 66 ± 20 µM.

What about the kcat (purified protein [5]) of the same molecule?
Its kcat is 4.8 ± 0.6 s⁻¹.

And the kcat/Km (purified protein [5])?
The kcat/Km was 70000 ± 30000 M⁻¹ s⁻¹.
